From paper PMC6555819, “Comprehensive study of nuclear receptor DNA binding provides a revised framework for understanding receptor specificity”
Substitutions are numbered along the chain they refer to.

B1: NRC3_wobSeed106_DR4_T28A_o1 (dsDNA)
DNA 1: GCCTCGAAAGGTCGGTTGAGGTGAGTAAACGGATAAGCGATTGACAGCGTAGAATGAAGG
DNA 2: CCTTCATTCTACGCTGTCAATCGCTTATCCGTTTACTCACCTCAACCGACCTTTCGAGGC
B2: NRC3_wobSeed115_DR4_A23C_o1 (dsDNA)
DNA 1: GCACAGACAGGTGAGTGAAGGTCACTCAGCTGGACGGCGATTGACAGCGTAGAATGAAGG
DNA 2: CCTTCATTCTACGCTGTCAATCGCCGTCCAGCTGAGTGACCTTCACTCACCTGTCTGTGC
B3: NRC3_wobSeed120_DR4_A17G_o1 (dsDNA)
DNA 1: GCCCGAGTAGGTTACGGGGGGGCATTCAGTGCGAATGCGATTGACAGCGTAGAATGAAGG
DNA 2: CCTTCATTCTACGCTGTCAATCGCATTCGCACTGAATGCCCCCCCGTAACCTACTCGGGC
B4: NRC3_wobSeed61_DR2_T12G_o1 (dsDNA)
DNA 1: GCCGTCCAAGGGCAGCAGGTCAGTGAAAGCGACGTGGCGATTGACAGCGTAGAATGAAGG
DNA 2: CCTTCATTCTACGCTGTCAATCGCCACGTCGCTTTCACTGACCTGCTGCCCTTGGACGGC
B5: NRC3_wobSeed51_DR2_C4G_o1 (dsDNA)
DNA 1: GCCGTCGGAGGACAGAAGGTCAGAGCTGTCCGCTTTGCGATTGACAGCGTAGAATGAAGG
DNA 2: CCTTCATTCTACGCTGTCAATCGCAAAGCGGACAGCTCTGACCTTCTGTCCTCCGACGGC
B6: NRC3_wobSeed123_DR5_C4G_o1 (dsDNA)
DNA 1: GCCGTCGGAGGACAACAGGAGGTCAGAGCTGCCAGAGCGATTGACAGCGTAGAATGAAGG
DNA 2: CCTTCATTCTACGCTGTCAATCGCTCTGGCAGCTCTGACCTCCTGTTGTCCTCCGACGGC
B7: NRC3_wobSeed123_DR5_A15C_o1 (dsDNA)
DNA 1: B6 DNA 1 with G4C, A15C
DNA 2: B6 DNA 2 with T46G, C57G
B8: NRC3_wobSeed62_DR2_T20G_o1 (dsDNA)
DNA 1: GCTCTGCTAGGTCAGTTGGGCAGCTAACGAGCTGCCGCGATTGACAGCGTAGAATGAAGG
DNA 2: CCTTCATTCTACGCTGTCAATCGCGGCAGCTCGTTAGCTGCCCAACTGACCTAGCAGAGC
B9: NRC3_wobSeed89_DR3_G18A_o1 (dsDNA)
DNA 1: GCCTATGTAGGTTAAGGAGGTCATTCAGTTTGAAAGGCGATTGACAGCGTAGAATGAAGG
DNA 2: CCTTCATTCTACGCTGTCAATCGCCTTTCAAACTGAATGACCTCCTTAACCTACATAGGC
B10: NRC3_wobSeed9_DR0_G21T_o1 (dsDNA)
DNA 1: GCATCTCTAGGTAAAGTTCATTGAAAGATCGATAGAGCGATTGACAGCGTAGAATGAAGG
DNA 2: CCTTCATTCTACGCTGTCAATCGCTCTATCGATCTTTCAATGAACTTTACCTAGAGATGC
B11: NRC3_wobSeed65_DR2_T8A_o1 (dsDNA)
DNA 1: GCATATGAAGGTTATCGGGTCATTCAGTTTGCGCATGCGATTGACAGCGTAGAATGAAGG
DNA 2: CCTTCATTCTACGCTGTCAATCGCATGCGCAAACTGAATGACCCGATAACCTTCATATGC
B12: NRC3_wobSeed112_DR4_C22G_o1 (dsDNA)
DNA 1: GCTAGCCTAGGTCAGATCGGGGCAGTATACGCTATAGCGATTGACAGCGTAGAATGAAGG
DNA 2: CCTTCATTCTACGCTGTCAATCGCTATAGCGTATACTGCCCCGATCTGACCTAGGCTAGC
B13: NRC3_wobSeed112_DR4_C23G_o1 (dsDNA)
DNA 1: B12 DNA 1 with G22C, C23G
DNA 2: B12 DNA 2 with G38C, C39G
B14: NRC3_wobSeed112_DR4_A27C_o1 (dsDNA)
DNA 1: B12 DNA 1 with G22C, A27C
DNA 2: B12 DNA 2 with T34G, C39G

target: RARb:RXRa (Homo sapiens, UniProt P10826;P19793 full;full); assay: no ligand; PBM; 270 nM : 90 nM RXRa; PBS pH 7.4, 2% milk, 0.02% Triton X-100, 1 mM DTT, BSA, 0.4 mg/ml salmon testes DNA; conditions: tags: His kept;His cleaved; copies: 1;1; label: surface-attached array probe
Procedure, shortened: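 Binding z-scores were set against random background probes. The data came from custom Agilent 4×180K protein-binding microarrays carrying double-stranded probes with 34-nt variable regions, incubated 1 h with ligand-free nuclear receptor dimers. Partner-specific antibodies detected binding, and scanned fluorescence was regression-normalized.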

RARb:RXRa, sequence (P10826 whole entry, chain 1 of 2): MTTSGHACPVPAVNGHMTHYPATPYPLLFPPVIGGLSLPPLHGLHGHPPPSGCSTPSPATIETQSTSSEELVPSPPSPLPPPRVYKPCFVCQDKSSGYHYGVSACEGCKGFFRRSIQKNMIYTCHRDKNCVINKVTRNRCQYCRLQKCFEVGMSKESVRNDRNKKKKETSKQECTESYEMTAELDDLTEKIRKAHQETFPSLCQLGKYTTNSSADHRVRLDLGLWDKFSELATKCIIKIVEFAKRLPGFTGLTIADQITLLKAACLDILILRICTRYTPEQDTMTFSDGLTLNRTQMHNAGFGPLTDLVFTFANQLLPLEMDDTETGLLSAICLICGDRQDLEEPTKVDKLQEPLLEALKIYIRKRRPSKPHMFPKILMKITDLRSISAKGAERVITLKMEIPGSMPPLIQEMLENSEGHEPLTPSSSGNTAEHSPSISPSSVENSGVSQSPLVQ
RARb:RXRa, sequence (P19793 whole entry, chain 2 of 2): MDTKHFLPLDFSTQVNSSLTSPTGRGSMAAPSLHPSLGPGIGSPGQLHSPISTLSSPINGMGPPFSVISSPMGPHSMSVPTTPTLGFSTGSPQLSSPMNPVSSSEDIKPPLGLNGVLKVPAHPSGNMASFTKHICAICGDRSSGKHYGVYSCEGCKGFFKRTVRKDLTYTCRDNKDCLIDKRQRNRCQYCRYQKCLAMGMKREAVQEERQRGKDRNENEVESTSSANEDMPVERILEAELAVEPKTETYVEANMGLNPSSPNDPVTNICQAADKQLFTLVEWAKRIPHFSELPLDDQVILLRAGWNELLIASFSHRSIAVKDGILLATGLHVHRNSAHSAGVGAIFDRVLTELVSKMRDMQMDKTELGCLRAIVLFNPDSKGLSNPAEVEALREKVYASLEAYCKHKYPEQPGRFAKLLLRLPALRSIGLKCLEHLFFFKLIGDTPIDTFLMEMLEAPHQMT

Binder | binding signal
B1 | 3.1 PBM z-score against 500 random probes
B2 | 3.12 PBM z-score against 500 random probes
B3 | 3.09 PBM z-score against 500 random probes
B4 | 3.09 PBM z-score against 500 random probes
B5 | 3.1 PBM z-score against 500 random probes
B6 | 3.11 PBM z-score against 500 random probes
B7 | 3.1 PBM z-score against 500 random probes
B8 | 3.09 PBM z-score against 500 random probes
B9 | 3.12 PBM z-score against 500 random probes
B10 | 3.11 PBM z-score against 500 random probes
B11 | 3.08 PBM z-score against 500 random probes
B12 | 3.1 PBM z-score against 500 random probes
B13 | 3.08 PBM z-score against 500 random probes
B14 | 3.08 PBM z-score against 500 random probes
